According to article PMC2141752 (The Journal of Cell Biology, 1998):

B1: canine caveolin-2 (natural protein)
chain: MGLETEKADVQLCMDDDAYSRHSAVDFGDLEQLADSGSDRDPRRLNSHLQVGFEDVIAEPVSTHSFDKVWICSHALFEVSKYVIYKFLTLLLAMPMAFAAGVLFATLSCLHIWIIMPFVKTCLMVLPSVQTIWKSVTDAVIAPLCSSVGRSFSSVSLQVSHD
modifications: phosphorylated at steady state (sites not given)
B2: α–caveolin-1 (natural protein)
chain: MSGGKYVDSEGHLYTVPIREQGNIYKPNNKAMAEEMSEKQVYDAHTKEIDLVNRDPKHLNDDVVKIDFEDVIAEPEGTHSFDGIWKASFTTFTVTKYWFYRLLSALFGIPMALIWGIYFAILSFLHIWAVVPCIKSFLIEIQCISRVYSIYVHTFCDPFFEAVGKIFSNIRINMQKET

Key:
α–caveolin-1 = molecular target: B2; experiment: co-IP
canine caveolin-2 = molecular target: B1; experiment: co-IP

Binder	ratio in the immunoprecipitate (α–caveolin-1)	ratio in the immunoprecipitate (canine caveolin-2)
B1	~0.5 caveolin-2 per α–caveolin-1	
β–caveolin-1 (natural protein) MAEEMSEKQVYDAHTKEIDLVNRDPKHLNDDVVKIDFEDVIAEPEGTHSFDGIWKASFTTFTVTKYWFYRLLSALFGIPMALIWGIYFAILSFLHIWAVVPCIKSFLIEIQCISRVYSIYVHTFCDPFFEAVGKIFSNIRINMQKET	~1 β–caveolin-1 per α–caveolin-1	~1 β–caveolin-1 per caveolin-2
B2		~1 α–caveolin-1 per caveolin-2
